The record followed here is patent US20220009987A9, “HUMAN RESISTIN COMPOSITIONS AND METHODS OF TREATING TLR4-MEDIATED DISEASE AND INFECTION” (THE REGENTS OF THE UNIVERSITY OF CALIFORNIA, priority 2017, published 2022).

Assay [1] deals with TLR4. Nature of the assay: hRetn cellular binding assay on dissociated lung cells from Nb-infected Tlr4+/+ or Tlr4−/− mice. Format: cell-based, mouse. As for the experimental part:
(§1) Binding Assay and Flow Cytometry. Single cell suspension of lung tissue was prepared and hRetn binding was measured as previously described in Jang et al., 2015, supra. Briefly, dissociated lung cells were incubated for 1 hour at 4° C. with 0.5 μg recombinant hResistin (Peprotech) or PBS, followed by 2× wash in FACS buffer, incubation with Fc block (5 μg/mL αCD16/32 and 10 μg/mL purified rat IgG1, 5 min at 4° C.). Cells were stained with biotinylated α-hRetn (Peprotech, 30 min at 4° C.) followed by detection with BV605-conjugated streptavidin (BD) and surface marker antibodies. To collect peritoneal exudate cells (PECs), the peritoneal cavity was washed and PECs recovered in 5 mL ice cold PBS. Surface marker antibodies were: F4/80 (clone A3-1), SiglecF (clone E50-2440), CD4 (clone RM4-5), Ly6C (HK1.4), CD11b (clone M1/70), CD11c (clone N418), Ly6G (clone 1A8), MHCII (clone M5/114.15.2) and CD3e (clone 145-2C11), CD115 (clone AFS98), purchased from Affymetrix, BD Biosciences or Biolegend. Cell populations were determined as follows: peritoneal macrophage (F4/80+CD11b+), neutrophils (Ly6G+CD11b+), eosinophils (SiglecF+CD11c−) and monocyte (Ly6C+CD11b+), alveolar macrophages (F4/80+CD11c+). For flow cytometric analysis, all samples were run on the BD LSRII and analyzed on FlowJo (v10).

The target of assay [2] is T1, TLR4 (Mus musculus, UniProt Q9QUK6).
T1 construct: from tissue; host or cells: dissociated lung cells (monocytes, alveolar macrophages, neutrophils) of day 7 Nb-infected mice
T1 sequence (Q9QUK6 26-835): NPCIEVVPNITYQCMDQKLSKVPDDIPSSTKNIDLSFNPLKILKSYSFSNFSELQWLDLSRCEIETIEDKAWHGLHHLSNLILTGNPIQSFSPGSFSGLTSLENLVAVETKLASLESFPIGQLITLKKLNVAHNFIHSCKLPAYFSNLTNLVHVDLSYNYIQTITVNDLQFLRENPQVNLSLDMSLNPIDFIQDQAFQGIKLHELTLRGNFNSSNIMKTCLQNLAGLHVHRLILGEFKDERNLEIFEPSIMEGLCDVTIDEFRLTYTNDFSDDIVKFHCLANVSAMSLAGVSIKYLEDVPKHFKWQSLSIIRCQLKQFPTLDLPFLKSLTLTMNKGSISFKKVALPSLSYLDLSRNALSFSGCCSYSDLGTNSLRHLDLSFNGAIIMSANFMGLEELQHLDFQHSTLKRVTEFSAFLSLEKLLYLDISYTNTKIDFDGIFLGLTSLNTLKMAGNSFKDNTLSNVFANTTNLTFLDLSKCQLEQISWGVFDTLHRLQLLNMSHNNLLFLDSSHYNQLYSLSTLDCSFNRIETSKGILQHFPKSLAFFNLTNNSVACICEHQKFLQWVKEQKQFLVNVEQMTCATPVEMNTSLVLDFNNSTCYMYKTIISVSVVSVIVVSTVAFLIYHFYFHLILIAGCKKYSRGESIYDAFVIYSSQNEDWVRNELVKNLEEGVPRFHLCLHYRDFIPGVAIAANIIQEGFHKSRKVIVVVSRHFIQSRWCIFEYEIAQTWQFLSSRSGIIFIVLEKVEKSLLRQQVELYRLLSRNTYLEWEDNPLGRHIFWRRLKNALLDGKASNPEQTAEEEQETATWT
The assay is described as above. The class given is cell-based. The conditions noted are these: Ly6C+CD11b+ lung cells, Nb-infected mice. Here is the method: as §1

In assay [3] the target is human CAP1 (Homo sapiens, UniProt Q01518). In words: Pull-down assay with His-tagged human CAP1. Format: binding. The conditions noted are these: nickel-NTA agarose beads, anti-hRetn blot. Here is the method: Pull-down Assay. 1 μg/ml protein His-tagged MBP, human TLR4 and human CAP1 were added to nickel-nitrilotriacetic acid-agarose beads (Invitrogen) in binding buffer (50 mM NaH2PO4, 500 mM NaCl, 10 mM Imidazole, pH 8.0) and mixed for 1 hour at 4° C., followed by washing and 1 h incubation at 4° C. with hRetn (E. coli-derived, Peprotech or 293T cell-derived, LifeSpan Biosciences) in binding buffer. Beads were washed in wash buffer (50 mM NaH2PO4, 500 mM NaCl, 20 mM Imidazole, pH 8.0), and complex protein eluted with elution buffer (50 mM NaH2PO4, 500 mM NaCl, 250 mM Imidazole, pH 6.0). His-MBP, His-TLR4 and His-CAP1 were detected by anti-His antibody (Abcam), and hRetn was detected by anti-hRetn antibody (donated by Mitchell Lazar) by Western Blot. For the N-peptide binding experiment, 1 μg/ml His-tagged human TLR4 with 500 ng/ml N-peptide or 10% TFE control was added to the beads in binding buffer and mixed for 30 min at 4° C., followed by co-immunoprecipitation using 1 μg/ml Flag-hRetn (LifeSpan Biosciences), anti-His or anti-Flag (Sigma).
Chain of human CAP1 (Q01518 whole entry): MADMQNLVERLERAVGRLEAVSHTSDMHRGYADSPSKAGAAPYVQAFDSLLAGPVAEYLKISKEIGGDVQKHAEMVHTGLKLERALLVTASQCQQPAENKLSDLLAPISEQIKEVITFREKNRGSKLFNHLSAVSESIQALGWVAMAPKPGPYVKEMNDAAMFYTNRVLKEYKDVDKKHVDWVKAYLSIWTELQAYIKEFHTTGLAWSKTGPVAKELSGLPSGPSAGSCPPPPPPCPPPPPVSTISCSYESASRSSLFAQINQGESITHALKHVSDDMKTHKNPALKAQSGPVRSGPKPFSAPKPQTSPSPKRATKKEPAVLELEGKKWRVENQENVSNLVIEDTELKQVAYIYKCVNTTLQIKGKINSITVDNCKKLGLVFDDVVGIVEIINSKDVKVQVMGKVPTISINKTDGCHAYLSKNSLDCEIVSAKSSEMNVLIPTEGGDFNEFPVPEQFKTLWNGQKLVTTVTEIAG

B1: hRetn: human resistin protein (hRetn) having an amino acid sequence of SEQ ID NO: 1; recombinant, E. coli-derived or 293T cell-derived (protein, listed as Homo sapiens)
chain: MKALCLLLLPVLGLLVSSKTLCSMEEAINERIQEVAGSLIFRAISSIGLECQSVTSRGDLATCPRGFAVTGCTCGSACGSWDVRAETTCHCQCAGMDWTGARCCRVQP
On to B1, for which the “hRetn binding to alveolar macrophages” value in assay [1] (F4/80+CD11c+ lung cells, Tlr4+/+ vs Tlr4−/−) is listed as “TLR4-dependent binding”. In addition, in assay [1] (Ly6C+CD11b+ lung cells, Nb-infected mice), the “hRetn binding to Tlr4−/− monocytes” value is reported as “significantly abrogated”. Moreover, in assay [1] (Ly6G+CD11b+ lung cells, Tlr4−/−), the “hRetn binding to neutrophils in the absence of TLR4” value is listed as “not noticeably affected”. Further, in assay [1] (lung cells, Nb-infected mice), the “frequency of hRetn-bound cells in monocytes” value was determined as 15% and the “frequency of hRetn-bound cells in neutrophils” value was found to be 8%. In addition, the “hRetn binding to Tlr4+/+ monocytes” value in assay [2] is “able to bind hRetn”. Besides, the “hRetn in pull-down elution with his-CAP1 (Western blot)” value in assay [3] is reported as “not his-CAP1”.
